In US20060167220A1, “Methods and compositions for preparing peptides with excellent solubility characteristics in aqueous solution at physiological pH” (priority 2004, published 2006):

Assay: Dissolution test of peptide sample (pH raised stepwise with NaOH until dissolved)
Format: physicochemical
Protocol: For example, a simple dissolution test can be used to evaluate the solubility characteristics of a peptide sample. The test is conveniently carried out at a temperature in the range of from about 20° C. to about 27° C., preferably about 25° C. From about 0.1 to about 0.3 grams of peptide is combined with about 1 to about 3 ml of an aqueous medium. The medium may be deionized water. In the case of T-20 or T-1249, these peptides are mildly acidic. Consequently, the medium optionally may include some initial amount base, e.g., about 17 mM Na2CO3 or the like, to provide a suitable initial pH. […] The mixture is rapidly stirred for 5 to 10 minutes between additional increments. Solids adhering to the sides of the testing vessel should be re-suspended. Rapid mixing should be maintained throughout. Results include observations regarding the clarity of the mixture, time required for dissolution, concentration and amount of caustic used, final pH upon dissolution (if this occurs below pH 9), and the like.
For purposes of the invention, peptides such as T-20, T-1249, and GLP-1, as well as counterparts of these, may be deemed to be in a more desired, deaggregated form if dissolution in accordance with this test occurs at a pH of less than about 8, preferably less than about 7.5. If dissolution occurs at a pH of greater than about 7.5, more preferably greater than about 8, the peptide is deemed to be in a less desired aggregated form. This helps to ensure the practicality of handling the peptide during subsequent processing and handling.

[1] = precipitated with 18% by volume acetonitrile

Substance: Acetyl-WQEWEQKITALLEQAQIQQE KNEYELQKLDKWASLWEWF-NH2 (Ac-WQEWEQKITALLEQAQIQQEKNEYELQKLDKWASLWEWF-NH2) [Sample T-1249, ID NO; 20]
- Dissolution behavior (precipitated with 14% by volume acetonitrile): dissolved to some degree at a pH of 6.95 but not completely
- Dissolution time [1]: 1 h
- Final pH at dissolution [1]: 6.69
- Turbidity in words [1]: only very faint turbidity
- Dissolution pH (precipitated with 20 to 22 volume percent acetonitrile): around 9
- Dissolution behavior (precipitated with no co-solvent): dissolved very slowly with high turbidity even after 14 to 18 hours and even at a pH of 8
